Experimental data: patent US20100255006A1 (Takeda / Millennium, published 2010)

Columns and labels:
[1] = biological target: caspase-1 as expressed in the IL-1β secretion assays (UniProt P29466); test: cell-based or functional assay
[2] = biological target: T1, CARD of caspase-1 (mammalian two-hybrid construct) (UniProt P29466 1-91); test: mammalian two-hybrid in 293T cells, pFR-Luc firefly reporter
T1 construct: domain: CARD; also called the CARD of caspase-1; not shown: two-hybrid fusion partner from a pCMV/AD or pCMV/BD plasmid
T1 sequence (looked up): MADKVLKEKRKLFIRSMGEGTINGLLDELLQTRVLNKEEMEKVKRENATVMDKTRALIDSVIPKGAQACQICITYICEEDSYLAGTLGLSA
Experimental: CARD-5 is a relatively small protein containing an N-terminal PYRIN domain and a C-terminal CARD domain (see, e.g., Masumoto et al. (1999) J. Biol. Chem. 274:33835-38). To identify whether the CARD domain of a CARD-containing protein interacted with the CARD of CARD-5, mammalian two-hybrid analysis was carried out using the CARD domains of 22 CARD-containing proteins (FIG. 13A). Mammalian two-hybrid assays were performed as described by Wang et al. (2001) J. Biol. Chem. 276:21405-21409. 293T cells were transfected with pCMV/AD and pCMVIBD plasmids, pFR-Luc firefly reporter (Stratagene), and pRL-TK Renilla reporter (Promega).

[3] = biological target: CARD-5 (ASC) as expressed in the NF-kB and IL-1β secretion assays (UniProt Q9ULZ3 1-195); test: cell-based or functional assay

CARD-5 (ASC) as expressed in the NF-kB and IL-1β secretion assays (from UniProt Q9ULZ3 1-195)
secreted IL-1β (ELISA of supernatants of COS-7L cells co-transfected with mouse pro-IL-1β) [1]: 150 to 400 pg/mL

B1: CARD of CARD-5 (mammalian two-hybrid construct) (other, UniProt Q9ULZ3 107-195, looked up)
chain: AAKPGLHFIDQHRAALIARVTNVEWLLDALYGKVLTDEQYQAVRAEPTNPSKMRKLFSFTPAWNWTCKDLLLQALRESQSYLVEDLERS
notes: domain: CARD; also called CARD domain of CARD-5; the CARD of CARD-5 (ASC); not shown: two-hybrid fusion partner from a pCMV/AD or pCMV/BD plasmid
fold activation of luciferase activity (mammalian two-hybrid) [2]: 24 fold

B2: full-length PYRIN-8 (PYRIN-8-FL, residues 1-1061 of SEQ ID NO:18) with a C-terminal FLAG epitope (other, not shown: small tags and cut ends)
chain: MLRTAGRDGLCRLSTYLEELEAVELKKFKLYLGTATELGEGKIPWGSMEKAGPLEMAQLLITHFGPEEAWRLALSTFERINRKDLWERGQREDLVRDTPPGGPSSLGNQSTCLLEVSLVTPRKDPQETYRDYVRRKFRLMEDRNARLGECVNLSHRYTRLLLVKEHSNPMQVQQQLLDTGRGHARTVGHQASPIKIETLFEPDEERPEPPRTVVMQGAAGIGKSMLAHKVMLDWADGKLFQGRFDYLFYINCREMNQSATECSMQDLIFSCWPEPSAPLQELIRVPERLLFIIDGFDELKPSFHDPQGPWCLCWEEKRPTELLLNSLIRKKLLPELSLLITTRPTALEKLHRLLEHPRHVEILGFSEAERKEYFYKYFHNAEQAGQVFNYVRDNEPLFTMCFVPLVCWVVCTCLQQQLEGGGLLRQTSRTTTAVYMLYLLSLMQPKPGAPRLQPPPNQRGLCSLAADGLWNQKILFEEQDLRKHGLDGEDVSAFLNMNIFQKDINCERYYSFIHLSFQEFFAAMYYILDEGEGGAGPDQDVTRLLTEYAFSERSFLALTSRFLFGLLNEETRSHLEKSLCWKVSPHIKMDLLQWIQSKAQSDGSTLQQGSLEFFSCLYEIQEEEFIQQALSHFQVIVVSNIASKMEHMVSSFCLKRCRSAQVLHLYGATYSADGEDRARCSAGAHTLLVQLPERTVLLDAYSEHLAAALCTNPNLIELSLYRNALGSRGVKLLCQGLRHPNCKLQNLRLKRCRISSSACEDLSAALIANKNLTRMDLSGNGVGFPGMMLLCEGLRHPQCRLQMIQLRKCQLESGACQEMASVLGTNPHLVELDLTGNALEDLGLRLLCQGLRHPVCRLRTLWLKICRLTAAACDELASTLSVNQSLRELDLSLNELGDLGVLLLCEGLRHPTCKLQTLRLGICRLGSAACEGLSVVLQANHNLRELDLSFNDLGDWGLWLLAEGLQHPACRLQKLWLDSCGLTAKACENLYFTLGINQTLTDLYLTNNALGDTGVRLLCKRLSHPGCKLRVLWLFGMDLNKMTHSRLAALRVTKPYLDIGC
NF-kB activity (relative luciferase activity, pNF-kB-Luc reporter in 293T cells) [3]: 150 fold
